Data set [1] concerns MS2 coat protein. The experiment in a line: apparent KD of MS2 coat protein, switch OFF state (with FMN for OFF switches, without FMN for ON switches); designed switch direction (-1 OFF switch, 1 ON switch): -1; higher = weaker reporter binding. To be noted: FMN input: 0 or 200 uM; Eterna round: R93 (includes R88 designs). A digest of the protocol: (§1)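 The buffer was 100 mM Tris-HCl pH 7.5 with 80 mM KCl and 4 mM MgCl2, used without or with constant ligand. In it, RNA switches transcribed on-chip from Illumina sequencing clusters were titrated with SNAP-549-labelled MS2 coat protein in twofold steps from 0.7 or 1.5 nM to 3 µM. Apparent KD for each design is the median of its normalised cluster binding-curve fits.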

Data set [2] relates to MS2 coat protein. The experiment in a line: apparent KD of MS2 coat protein, switch ON state; designed switch direction (-1 OFF switch, 1 ON switch): -1; higher = weaker reporter binding. To be noted: FMN input: 0 or 200 uM; Eterna round: R93 (includes R88 designs). A digest of the protocol:
as §1

Turning to “CAUAAACAUGAGGAUCACCCAUGUGAGGAUAUGAUAUUACUAGGACGGCUGUAAUCAAUCAGAAGGCACAUCAA [JR_Exc--1_Sub1206]”, the results for the “apparent KD of MS2 coat protein” value in the data set with MS2 coat protein [1] and with MS2 coat protein [2] were 41.5 nM and 22.5 nM, respectively.
Taken in the same sequence, the figures for “AAAAAACAUGAGGAUCACCCAUGUAAGGAUAUGCUGAAAAACACGGAAAAAACGUGCAGCAGAAGGUACAAAGA [Mat - Exclusion 1 - Eli mod - D96]” were 39.9 nM and 18.3 nM.
On the same counts, the results for “AGUCAGAGAGGAUAUACAUGGGAAAAAAAAGUAAGAUCCCUACAUGAGGAUCACCCAUGUAGAAGGCUCUGACA [Ex2 Design 139: Sub-opt 3]” are 20.2 nM and 22.6 nM.
On the same counts, the results for “AAACCACAUGAGGAUCACCCAUGUUAGGAUAUGAACGAAAAUAAAUAAAAAUAAAAGUUCAGAAGGGACAAAAA [66%, Wbt, 21]” are 14.9 nM and 21.5 nM.
As to “UAAAAACAUGAGGAUCACCCAUGUCAGGAUAUGUGCUUAAUAAAAAAAUAAAUAACAAGCAGAAGGGACAAUAA [JR_Exc001_Sub201]”, the “apparent KD of MS2 coat protein” value worked out at 34.4 nM in the data set with MS2 coat protein [1] and 35 nM in the data set on MS2 coat protein [2].
Regarding “AAAGGACAAGGAUAUACAUGAGGAUCACCCAUGUAAAAAACAUAAUAAAAGAACUUAUGUAGAAGGUGUCCAAA [69%, Moding Meechl, 8]”, the figures for the “apparent KD of MS2 coat protein” value in the data set on MS2 coat protein [1] and with MS2 coat protein [2] were 177 nM and 38.3 nM, respectively.
On the same counts, the results for “AGCUAGUCAGGAUAUGCGAAUAUGUCAAAAGACGUGAAGGGACAUGAGGAUCACCCAUGUAGAAGGGACUAGCA [Diamond 3]” are 36.5 nM and 32.4 nM.
Taken in the same sequence, the figures for “GCUGGCGAAGGAUAUACAUGAGGAUCACCCAUGUGAGAGAAAAAAGUGAGAAAGAAAAGUAGAAGGUCGUUAGG [salish99-ex3-96]” were 70.4 nM and 31.7 nM.
Taken in the same sequence, the figures for “CCCAUGUCAGGAUAUCAGUAGUAAAAAAAAAAAAUUACUACUGAGAAGGGACAUGAGGAUCACCCAUGUCCCUU [EX4 314: Super Stable 14]” were 14.2 nM and 16.9 nM.
Turning to “AAGAACGUAGGAUAUACAUGAGGAUCACCCAUGUAAAAGAAAGAAGGGAAAGAGAAAAGUAGAAGGACGAAGAA [Wahkare Bakenrenef]”, the results for the “apparent KD of MS2 coat protein” value in the data set on MS2 coat protein [1] and in the data set on MS2 coat protein [2] were 34.4 nM and 21.6 nM, respectively.
Taken in the same sequence, the figures for “UUUAUGUGAGGAUAUACGAAUAGUAAGUAAGUAUUACAGACGUAGAAGGCACAUGAGGAUCACCCAUGUGAAUA [JR_Exc004_Sub307]” were 58.8 nM and 32.7 nM.
Taken in the same sequence, the figures for “AAGCUGGUAGGAUAUACUAGGGCAACUAAUGCACCGAUAGGACAUGAGGAUCACCCAUGUAGAAGGGCCAGAAA [JR_Exc002_Sub404]” were 137 nM and 65.5 nM.
On the same counts, the results for “AAAAACCGAGGAUAUACAUGAGGAUCACCCAUGUAAAAAAAAAAAAAGGGAAAAAAAAGUAGAAGGCGGAAAAA [Djehuti Sekhemresementawy]” are 34.8 nM and 26.2 nM.
Regarding “AACUAGUCAGGAUAUACGAACAUGUCAAAAAACAUAAAGGGACAUGAGGAUCACCCAUGUAGAAGGGACUAGCA [74%, Web mod - With 4 less G's]”, the “apparent KD of MS2 coat protein” value with MS2 coat protein [1] came out at 262 nM; with MS2 coat protein [2], 161 nM.
Take “AAGAAGUGAGGAUAUACAUGAGGAUCACCCAUGUAAAAGAAAGAGGGAAAAGAGAAAAGUAGAAGGCACAAGAA [Weserkare-meryamun Ptolemy II Philadelphos]”: the results for the “apparent KD of MS2 coat protein” value in the data set with MS2 coat protein [1] and in the data set on MS2 coat protein [2] were 33.7 nM and 35.6 nM, respectively.
In the case of “AACAGUACAGGAUAUACAUGAGGAUCACCCAUGUGAGACUUAAAAGGCGUACCUAAAAGUAGAAGGGUACUGGA [JL Maslow Revisted mod 21]”, the entries for the “apparent KD of MS2 coat protein” value with MS2 coat protein [1] and in the data set on MS2 coat protein [2] were 176 nM and 56.1 nM, respectively.
On the same counts, the results for “CUCAUGUUAGGAUAUUAAUGAAAUGAAGUGAAAGAAAAGAAUAAGAAGGAACAUGAGGAUCACCCAUGUUAGAA [EteRNA is fun!]” are 25.2 nM and 69.3 nM.
On the same counts, the results for “AAGGUACGAGGAUAUACAUAGAUACAGACACAUGUACAUGUACAUGAGGAUCACCCAUGUAGAAGGCGUAUAUA [AJ 19]” are 69.7 nM and 86.1 nM.
On the same counts, the results for “AAAAAGUGAGGAUAUUCGGAAGGGAAAGCGCAAACCCAACCGAAGAAGGCACAUGAGGAUCACCCAUGUGAAAA [Ecls4-III 65% - Early + late G segment 1]” are 33 nM and 21.2 nM.
Turning to “GUCCUACAUGAGGAUCACCCAUGUCAGGAUAUGCACCGGUUGCUUUAGACCGGUAAAGGCAGAAGGGACGGGUG [Orzadima]”, the “apparent KD of MS2 coat protein” value in the data set with MS2 coat protein [1] came out at 19.8 nM; in the data set with MS2 coat protein [2], 23.2 nM.

Source of the values: the supplement of paper PMC9170038.
